Data from PMC5725494, “Cell cycle-dependent phosphorylation regulates RECQL4 pathway choice and ubiquitination in DNA double-strand break repair”.
Residue numbers refer to the chain shown, from its start.

Legend:
Test in all cases: EMSA; 25 or 50 nM protein, 0.5 nM DNA; 5 mM MnCl2, no ATP; 25 mM HEPES pH 7.4, 5 mM MnCl2, 1 mM DTT, 100 ng/mL BSA, 5% glycerol, no ATP; 10 min at 37 °C; 10% native PAGE
Conditions in all cases: protein: recombinant; tags: 3xFLAG; label: 5'-32P on Mix3-19 (S13); fork: 19 bp duplex with 5' T15 arm (strand 1) and 3' T15 arm (strand 2)
RECQL4 RQ4-2A = target: T1, RECQL4 RQ4-2A (UniProt O94761 1-1208, S89A;S251A)
T1 sequence: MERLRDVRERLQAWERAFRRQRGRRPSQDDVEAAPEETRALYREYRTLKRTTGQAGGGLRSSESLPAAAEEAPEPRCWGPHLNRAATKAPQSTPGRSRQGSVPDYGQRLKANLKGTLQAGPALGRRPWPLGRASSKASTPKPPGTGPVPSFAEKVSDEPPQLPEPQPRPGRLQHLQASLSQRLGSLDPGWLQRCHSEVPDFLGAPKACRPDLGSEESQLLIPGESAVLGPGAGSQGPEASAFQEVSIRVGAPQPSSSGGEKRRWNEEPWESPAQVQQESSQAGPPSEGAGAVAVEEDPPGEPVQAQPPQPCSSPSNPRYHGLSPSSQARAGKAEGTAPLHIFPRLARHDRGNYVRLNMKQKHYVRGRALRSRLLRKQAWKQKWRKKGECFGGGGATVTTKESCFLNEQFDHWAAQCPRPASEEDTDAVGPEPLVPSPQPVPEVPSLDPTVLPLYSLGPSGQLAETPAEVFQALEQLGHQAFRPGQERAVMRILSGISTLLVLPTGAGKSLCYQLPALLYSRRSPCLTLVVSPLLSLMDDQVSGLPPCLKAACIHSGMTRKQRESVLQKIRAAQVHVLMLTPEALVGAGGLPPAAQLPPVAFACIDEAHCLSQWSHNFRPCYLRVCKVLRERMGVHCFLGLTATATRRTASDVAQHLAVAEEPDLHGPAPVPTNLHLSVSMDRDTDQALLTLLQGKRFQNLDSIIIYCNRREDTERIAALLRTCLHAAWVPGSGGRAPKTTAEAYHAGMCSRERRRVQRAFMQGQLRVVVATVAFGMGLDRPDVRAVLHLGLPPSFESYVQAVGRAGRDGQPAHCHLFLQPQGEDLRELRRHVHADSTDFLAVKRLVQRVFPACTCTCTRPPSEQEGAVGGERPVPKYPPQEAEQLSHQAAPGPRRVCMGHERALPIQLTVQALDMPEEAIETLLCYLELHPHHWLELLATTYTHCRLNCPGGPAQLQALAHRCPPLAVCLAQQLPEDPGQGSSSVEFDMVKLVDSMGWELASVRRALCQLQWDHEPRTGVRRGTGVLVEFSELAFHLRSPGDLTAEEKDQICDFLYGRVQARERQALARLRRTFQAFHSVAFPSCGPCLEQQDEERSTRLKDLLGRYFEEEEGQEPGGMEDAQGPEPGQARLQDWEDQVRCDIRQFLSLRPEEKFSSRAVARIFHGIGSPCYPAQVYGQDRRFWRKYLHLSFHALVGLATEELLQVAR

RECQL4 RQ4-2D = target: T2, RECQL4 RQ4-2D (UniProt O94761 1-1208, S89D;S251D)
T2 sequence: T1 sequence with A89D, A251D

RECQL4 WT (RQ4Wt) = target: T3, RECQL4 WT (RQ4Wt) (UniProt O94761 1-1208)
T3 sequence: T1 sequence with A89S, A251S

Measured: binding signal

B1: Mix3/4-19 Y-shaped duplex (dsDNA)
DNA 1: TTTTTTTTTTTTTTTGAGTGTGGTGTACATGCAC
DNA 2: GTGCATGTACACCACACTCTTTTTTTTTTTTTTT
~40 % DNA shifted: RECQL4 RQ4-2A | RECQL4 RQ4-2D | RECQL4 WT (RQ4Wt)
